Square brackets hold non-standard residues; d marks the D form. Ends that are not written are not given here. pT = C[C@@H](OP(=O)(O)O)[C@H](N)C(=O)O
T1: AF4 peptide phosphorylated at T766
T1 chain: LMVKI[pT]LDLLSRIP

T2: AF9 ANC1 Homology Domain (AHD), residues 490-568 (UniProt P42568 490-568)
T2 sequence (looked up): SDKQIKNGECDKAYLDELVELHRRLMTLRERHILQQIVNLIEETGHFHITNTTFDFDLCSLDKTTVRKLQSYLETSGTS


Experiments:
[1] = molecular target: T1, AF4 peptide phosphorylated at T766; assay: fluorescence polarisation
[2] = molecular target: BCoR peptide of the fluorescence anisotropy experiments; assay: fluorescence polarisation
[3] = molecular target: AF4 peptide of the fluorescence anisotropy experiments; assay: fluorescence polarisation
[4] = molecular target: T2, AF9 ANC1 Homology Domain (AHD), …; assay: NMR titration

Row | fold reduction of affinity against the unphosphorylated AF4 peptide [1] [fold] | Kd [2] [nM] | Kd [3] [nM] | binding result [4] | Binder
1 | ~30 | 32 | 0.17 | – | MBP-AF9 (mouse AF9 residues 475-568 fused to the Maltose Binding Protein) (domain or fragment, UniProt A2AM29 475-568, looked up) NNNQILEVKSPIKQSKSDKQIKNGECDKAYLDELVELHRRLMTLRERHILQQIVNLIEETGHFHITNTTFDFDLCSLDKTTVRKLQSYLETSGT
2 | – | – | – | binds | LMVKITLDLLSRIP (peptide, UniProt P51825 761-774, looked up) [AF4 peptide, residues 761-774 (AF9 interaction motif of AF4)]
